Measurements as given in patent publication US20240084041A1 (Regeneron, published 2024).
One block for each binder: values may come before it.

How the values were obtained:
Test in all cases: cell-based or functional assay
[1] = biological target: T1, MET on NCI-H596 cells (MET exon14 skip mutation) (human, UniProt P08581 25-1390)
[2] = biological target: T1, MET on NCI-H596 cells (MET exon14 skip …); remark: listed apart in the source
[3] = biological target: T2, MET on EBC-1 cells (human, UniProt P08581 25-1390)
T2 chain: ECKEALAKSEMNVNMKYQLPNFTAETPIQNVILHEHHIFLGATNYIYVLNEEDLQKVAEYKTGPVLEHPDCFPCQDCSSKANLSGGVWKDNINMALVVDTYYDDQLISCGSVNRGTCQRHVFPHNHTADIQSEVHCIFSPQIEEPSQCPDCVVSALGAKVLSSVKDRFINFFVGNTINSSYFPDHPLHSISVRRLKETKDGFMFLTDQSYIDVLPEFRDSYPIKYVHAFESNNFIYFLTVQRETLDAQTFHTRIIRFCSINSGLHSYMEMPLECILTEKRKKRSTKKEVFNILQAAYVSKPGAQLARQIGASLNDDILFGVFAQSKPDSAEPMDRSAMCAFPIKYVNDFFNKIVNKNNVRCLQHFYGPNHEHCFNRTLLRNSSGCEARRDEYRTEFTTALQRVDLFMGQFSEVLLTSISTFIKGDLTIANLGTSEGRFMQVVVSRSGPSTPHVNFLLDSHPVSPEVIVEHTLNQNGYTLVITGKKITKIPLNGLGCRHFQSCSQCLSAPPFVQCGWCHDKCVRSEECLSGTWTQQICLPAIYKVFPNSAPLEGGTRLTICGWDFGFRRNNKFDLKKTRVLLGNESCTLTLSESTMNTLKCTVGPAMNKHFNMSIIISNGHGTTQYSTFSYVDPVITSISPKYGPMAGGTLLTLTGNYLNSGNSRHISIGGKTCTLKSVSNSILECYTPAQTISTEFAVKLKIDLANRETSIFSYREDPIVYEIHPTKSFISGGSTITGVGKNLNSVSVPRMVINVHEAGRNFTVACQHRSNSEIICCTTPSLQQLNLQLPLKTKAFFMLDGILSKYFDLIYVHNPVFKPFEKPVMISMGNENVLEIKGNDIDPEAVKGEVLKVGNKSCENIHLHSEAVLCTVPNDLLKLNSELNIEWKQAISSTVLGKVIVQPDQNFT

- Relative Cell Growth (n = 3), NCI-H596 in soft agar, 5 µg/ml, two weeks [1]: 1.69 relative to control (no treatment)
- Relative MET Level (immunoblot, 18 hours, 5 µg/ml, NCI-H596) [2]: 0.35 relative to hFc control
B1: H4H13312P2 (antibody, V domains shown)
VH: EVQLVESGGGLVQPGGSLRLSCAASGFIVTTNYMTWLRQAPGKGLEWVSLIYSSGHTYYADSVKGRFTISRHNSKNTLYLQMDSLRAEDTAVYYCASAFAADVFDIWGQGTMVTVSS
VL: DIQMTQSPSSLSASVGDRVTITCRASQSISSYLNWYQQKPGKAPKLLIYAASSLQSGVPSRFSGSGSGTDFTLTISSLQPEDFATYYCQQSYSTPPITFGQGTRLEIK

- Relative Cell Growth (n = 3), NCI-H596 in soft agar, 5 µg/ml, two weeks [1]: 2.96 relative to control (no treatment)
- Relative MET Level (immunoblot, 18 hours, 5 µg/ml, NCI-H596) [2]: 0.5 relative to hFc control
B2: H4H13306P2 (antibody, V domains shown)
VH: EVQLVESGGGLVQPGTSLRLSCAASGFTFDDYAMHWVRQAPGKGLEWVSGITWNSYNIDYADSVKGRFTISRDNAKNSLYLQMNSLRAEDTALYYCAKDDDYSNYVYFDYWGQGTLVTVSS
VL: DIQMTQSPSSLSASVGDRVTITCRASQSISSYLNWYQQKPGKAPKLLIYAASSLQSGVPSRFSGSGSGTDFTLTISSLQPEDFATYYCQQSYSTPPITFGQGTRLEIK

- Relative Cell Growth (n = 3), NCI-H596 in soft agar, 5 µg/ml, two weeks [1]: 1.07 relative to control (no treatment)
- Relative MET Level (immunoblot, 18 hours, 5 µg/ml, NCI-H596) [2]: 0.24 relative to hFc control
- Relative Cell Growth (n = 3), EBC-1, 0.1 µg/mL, 5 days [3]: 0.397 relative to control
- Relative Cell Growth (n = 3), EBC-1, 1 µg/mL, 5 days [3]: 0.462 relative to control
B3: H4H14639D Bispecific Antibody (bispecific antibody, V domains shown)
VH 1: B2 VH
VH 2: B1 VH
VL: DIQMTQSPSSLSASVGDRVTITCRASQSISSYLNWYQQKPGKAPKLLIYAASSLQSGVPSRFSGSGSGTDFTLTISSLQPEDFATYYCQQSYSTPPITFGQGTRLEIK
